Values joined by “and” are separate entries in the source; they are usually repeats but may differ in a detail not shown here. Equal entries are not always repeated.
Legend:
[1] = target: Hepatitis B Virus (HBV) capsid (core) protein Cp183, adyw wildtype (Hepatitis B Virus, adyw); test: negative-stain electron microscopy
[2] = target: Hepatitis B Virus (HBV) capsid protein Cp183-EEE (S155E/S162E/S170E) (Hepatitis B Virus, adyw); test: negative-stain electron microscopy
SEC-MALS = target: the molecule itself; test: SEC-MALS

Molecule: Hepatitis B Virus (HBV) capsid (core) protein Cp183, adyw wildtype (natural protein)
- stoichiometry N [1]: 240 and 180

Molecule: Hepatitis B Virus (HBV) capsid protein Cp183-EEE (S155E/S162E/S170E) (natural protein)
- stoichiometry N [2]: 240 and 180

B1: Brome Mosaic Virus (BMV) capsid protein (natural protein)
chain: MSTSGTGKMTRAQRRAAARRNRWTARVQPVIVEPLAAGQGKAIKAIAGYSISKWEASSDAITAKATNAMSITLPHELSSEKNKELKVGRVLLWLGLLPSVAGRIKACVAEKQAQAEAAFQVALAVADSSKEVVAAMYTDAFRGATLGDLLNLQIYLYASEAVPAKAVVVHLEVEHVRPTFDDFFTPVYR
- stoichiometry N (SEC-MALS): 180

— paper PMC2964155 (Virology, 2010)
